Experimental findings from paper PMC5705597, “Molecular architecture of potassium chloride co-transporter KCC2” (Scientific Reports, 2017) are described below.

The target in one test is T1, KCC2 (Homo sapiens, UniProt Q9H2X9).
T1 construct: gene SLC12A5; N-terminal tagged Flag-Avi-His-KCC2, residues 1–1116 of NP_065759 (human KCC2 isoform 2), purified full length
T1 sequence (Q9H2X9 1-1116 isoform Q9H2X9-2): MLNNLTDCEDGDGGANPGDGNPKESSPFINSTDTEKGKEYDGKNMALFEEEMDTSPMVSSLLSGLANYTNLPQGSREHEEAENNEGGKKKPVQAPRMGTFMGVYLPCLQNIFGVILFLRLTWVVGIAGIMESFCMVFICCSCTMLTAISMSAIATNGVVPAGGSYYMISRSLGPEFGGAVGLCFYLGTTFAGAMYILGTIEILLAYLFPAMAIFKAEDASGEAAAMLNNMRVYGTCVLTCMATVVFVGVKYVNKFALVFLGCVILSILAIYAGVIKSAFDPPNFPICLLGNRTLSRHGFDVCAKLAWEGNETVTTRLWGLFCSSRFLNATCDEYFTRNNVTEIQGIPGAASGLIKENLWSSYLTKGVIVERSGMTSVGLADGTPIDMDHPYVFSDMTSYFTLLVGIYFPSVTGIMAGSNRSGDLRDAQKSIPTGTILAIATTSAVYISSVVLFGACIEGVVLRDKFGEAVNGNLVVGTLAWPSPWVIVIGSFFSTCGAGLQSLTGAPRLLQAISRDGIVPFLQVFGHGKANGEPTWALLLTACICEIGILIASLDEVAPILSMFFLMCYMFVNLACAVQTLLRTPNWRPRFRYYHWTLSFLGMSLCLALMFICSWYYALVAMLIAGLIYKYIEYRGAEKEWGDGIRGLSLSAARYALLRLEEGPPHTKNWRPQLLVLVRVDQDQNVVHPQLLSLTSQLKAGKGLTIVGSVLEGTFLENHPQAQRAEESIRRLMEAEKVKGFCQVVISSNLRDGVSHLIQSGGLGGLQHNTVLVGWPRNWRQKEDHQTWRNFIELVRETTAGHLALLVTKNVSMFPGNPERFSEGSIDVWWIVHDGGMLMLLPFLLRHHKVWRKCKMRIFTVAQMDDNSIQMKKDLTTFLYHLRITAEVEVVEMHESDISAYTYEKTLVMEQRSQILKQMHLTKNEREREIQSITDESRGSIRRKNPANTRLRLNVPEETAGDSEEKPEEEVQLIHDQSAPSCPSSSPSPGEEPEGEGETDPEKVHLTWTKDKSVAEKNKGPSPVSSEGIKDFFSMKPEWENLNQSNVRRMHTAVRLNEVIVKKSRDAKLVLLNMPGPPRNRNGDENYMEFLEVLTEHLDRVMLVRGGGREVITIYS
The test can be described thus: SPR (Biacore S200), steady-state Langmuir fit on immobilized purified KCC2. The format is binding. An excerpt:
SPR (Biacore S200), steady-state Langmuir fit on immobilized purified KCC2 on KCC2 | Concentration-dependent binding of VU0463271 (blue diamonds) and non-specific control compound (red circles) on immobilized purified KCC2.

Test [1] concerns the target Flag-Avi-His-KCC2 (human potassium chloride co-transporter KCC2, N-terminally tagged) (human) (UniProt Q9H2X9). The test can be described thus: negative stain electron microscopy; gel filtration fractions of KCC2 monomers and dimers, 40 µg/ml in PBS, CALX-R3 1.5 mM, DDM 0.6 mM; 2% uranyl acetate; 2-D classes and 3-D models.
Test [2] shares this target. The test can be described thus: cross-linking; purified KCC2 (5 µg) with glutaraldehyde 0-0.1% for 30 min at 4 °C, with or without DTT; SDS-PAGE and Western blot. In general terms: Immunoblotting shows a protein as a band on a membrane.
The target is the same in test [3]. The experiment in a line: SEC; 50 µl purified KCC2 at 1 mg/ml on Superdex 200 Increase 5/150 GL, PBS, CALX-R3 1.5 mM, DDM 0.6 mM; fractions analysed by Clear Native PAGE and Western blot.
Test [4] has the same target. The test can be described thus: native gel or EMSA; purified KCC2 in CALX-R3/DDM on 4-15% Clear Native PAGE (cathode buffer 7.5 mM imidazole, 0.05% deoxycholate, 0.01% DDM), 4 °C, Western blot with KCC2 antibody; with or without a freeze-thaw cycle.
The target in test [5] is T2, recombinant mouse KCC2 (mouse), Q91V14.
T2 chain: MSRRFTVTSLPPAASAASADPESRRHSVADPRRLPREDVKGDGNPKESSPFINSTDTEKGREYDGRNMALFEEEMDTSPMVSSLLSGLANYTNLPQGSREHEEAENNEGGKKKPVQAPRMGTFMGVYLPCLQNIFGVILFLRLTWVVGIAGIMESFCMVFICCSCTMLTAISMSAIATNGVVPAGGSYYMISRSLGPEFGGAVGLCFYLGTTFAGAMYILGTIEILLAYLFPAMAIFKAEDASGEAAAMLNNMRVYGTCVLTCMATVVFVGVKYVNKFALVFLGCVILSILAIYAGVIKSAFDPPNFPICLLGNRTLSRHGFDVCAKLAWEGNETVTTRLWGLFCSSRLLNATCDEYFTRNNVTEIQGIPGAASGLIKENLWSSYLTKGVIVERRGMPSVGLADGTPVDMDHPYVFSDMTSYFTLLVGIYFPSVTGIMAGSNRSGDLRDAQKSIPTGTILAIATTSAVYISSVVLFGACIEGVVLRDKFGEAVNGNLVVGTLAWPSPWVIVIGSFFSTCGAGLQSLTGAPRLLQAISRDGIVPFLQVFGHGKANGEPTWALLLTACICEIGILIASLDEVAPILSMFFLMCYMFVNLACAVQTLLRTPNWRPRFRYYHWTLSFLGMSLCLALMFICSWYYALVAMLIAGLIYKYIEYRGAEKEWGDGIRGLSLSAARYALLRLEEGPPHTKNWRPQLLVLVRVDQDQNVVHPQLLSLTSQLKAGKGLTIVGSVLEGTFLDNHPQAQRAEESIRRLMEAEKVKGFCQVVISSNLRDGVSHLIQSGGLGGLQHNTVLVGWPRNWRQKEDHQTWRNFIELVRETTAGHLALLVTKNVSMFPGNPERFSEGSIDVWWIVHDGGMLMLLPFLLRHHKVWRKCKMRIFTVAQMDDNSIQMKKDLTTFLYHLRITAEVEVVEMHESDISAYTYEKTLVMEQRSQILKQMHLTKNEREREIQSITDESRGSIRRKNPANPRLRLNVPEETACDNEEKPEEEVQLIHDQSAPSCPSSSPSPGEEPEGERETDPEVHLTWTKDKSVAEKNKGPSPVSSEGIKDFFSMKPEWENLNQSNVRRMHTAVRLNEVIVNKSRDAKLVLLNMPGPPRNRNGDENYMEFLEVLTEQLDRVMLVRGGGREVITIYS
Described as above. Conditions: remark: other sources report otherwise.

Broadly, the Kd is the free concentration of one partner at which half of the binding sites on the other are occupied at equilibrium, for simple one-to-one binding. In the case of `Cc1csc(N(C(=O)CSc2ccc(-c3ccccc3)nn2)C2CC2)n1` [VU0463271], the Kd at KCC2 is 3 ± 2 µM.
The term stoichiometry N denotes a count of units in the complex or per binding partner. With “Flag-Avi-His-KCC2 (human potassium chloride co-transporter KCC2, N-terminally tagged) (from UniProt Q9H2X9-2 1-1116) (natural protein)”, the stoichiometry N in test [1], in test [2], in test [3] and in test [4] was 2 throughout.

B1: recombinant mouse KCC2, Q91V14 1-1138 (natural protein)
chain: T2 chain
As for B1, the stoichiometry N in test [5] was 2.
